The series concerns the molecule itself. Kind of series: negative-stain TEM + far-UV CD + autofluorescence of amyloid fibril formation; tag-free DPF3a alone, ~4.5 uM (0.18 mg/mL), incubated at ~25 °C for seven days in 50 mM Tris-HCl pH 8, 150 mM NaCl (reference); also at pH 12 in 150 mM NaCl and at pH 8 in 300 and 500 mM NaCl, where fibrils formed later, shorter and in lower number.

B1: double PHD fingers 3 (DPF3) protein, isoform DPF3a, full-length (natural protein, human, UniProt Q92784-2 1-357, looked up)
chain: MATVIHNPLKALGDQFYKEAIEHCRSYNSRLCAERSVRLPFLDSQTGVAQNNCYIWMEKRHRGPGLAPGQLYTYPARCWRKKRRLHPPEDPKLRLLEIKPEVELPLKKDGFTSESTTLEALLRGEGVEKKVDAREEESIQEIQRVLENDENVEEGNEEEDLEEDIPKRKNRTRGRARGSAGGRRRHDAASQEDHDKPYVCDICGKRYKNRPGLSYHYAHTHLASEEGDEAQDQETRSPPNHRNENHRPQKGPDGTVIPNNYCDFCLGGSNMNKKSGRPEELVSCADCGRSAHLGGEGRKEKEAAAAARTTEDLFGSTSESDTSTFHGFDEDDLEEPRSCRGRRSGRGSPTADKKGSC
notes: Human DPF3, isoform DPF3a, full length; molecular mass 40244 Da; Metalloprotein with a C2H2 zinc finger; also called full-length DPF3a; source: E. coli BL21 Rosetta (DE3), purified (GSTrap FF, on-column TEV cleavage of the GST tag); not shown: GST, N-terminal, cleaved
With B1, the binding result was “binds”.

For the origin of these results see paper doi:10.1101/2025.02.24.640013, “Exploration of the influence of environmental changes on the conformational and amyloidogenic landscapes of the zinc finger protein DPF3a by combining biophysical and molecular dynamics approaches” (bioRxiv, 2025).
